In patent US6440702:

T1: rat CNTF receptor on rat superior cervical ganglia (SCG) neurons (rat, UniProt Q08406 23-342)
T1 construct: whole, on cells; also called rat receptor; SCGs
T1 sequence (looked up): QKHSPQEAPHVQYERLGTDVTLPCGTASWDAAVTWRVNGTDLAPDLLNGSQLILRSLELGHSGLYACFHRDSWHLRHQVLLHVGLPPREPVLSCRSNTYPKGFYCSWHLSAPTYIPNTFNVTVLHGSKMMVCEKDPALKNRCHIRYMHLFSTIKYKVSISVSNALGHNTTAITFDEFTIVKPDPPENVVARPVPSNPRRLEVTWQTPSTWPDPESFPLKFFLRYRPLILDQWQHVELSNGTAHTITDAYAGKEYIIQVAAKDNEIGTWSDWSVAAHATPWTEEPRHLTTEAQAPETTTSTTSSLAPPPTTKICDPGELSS

T2: human CNTF receptor alpha component on MG87/CNTFR fibroblasts (human, UniProt P26992 23-342)
T2 construct: whole, on cells; Mouse fibroblast line transfected with the human CNTFalpha receptor gene; also called CNTFRalpha; MG87/huCNTFR
T2 sequence (looked up): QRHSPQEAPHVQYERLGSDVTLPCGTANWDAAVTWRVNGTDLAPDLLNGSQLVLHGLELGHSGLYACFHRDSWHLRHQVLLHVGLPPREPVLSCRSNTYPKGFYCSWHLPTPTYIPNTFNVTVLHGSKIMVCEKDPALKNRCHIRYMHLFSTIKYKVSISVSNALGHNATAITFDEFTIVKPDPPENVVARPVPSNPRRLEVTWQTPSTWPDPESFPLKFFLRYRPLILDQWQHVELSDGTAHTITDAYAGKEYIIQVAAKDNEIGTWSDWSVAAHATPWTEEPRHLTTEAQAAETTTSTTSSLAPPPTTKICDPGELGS


Columns and labels:
[1] = target: T1, rat CNTF receptor on rat superior …; assay: displacement of 125I-rat CNTF from rat SCG neuron monolayers
[2] = target: T2, human CNTF receptor alpha component on …; assay: displacement of 125I-rat CNTF from MG87/CNTFR cells (human CNTF receptor)
Method: MG87/CNTFR is a fibroblast cell line transfected with the human CNTFα receptor gene (Squinto, et al., 1990, Neuron 5:757–766; Davis et al., 1991, Science 253:59–63). Binding Assays Binding was performed directly on cell monolayers. Cells in culture wells were washed once with assay buffer consisting of phosphate buffered saline (PBS; pH 7.4), 0.1 mM bacitracin, 1 mM PMSF, 1 µg/ml leupeptin, and 1 mg/ml BSA. […] Non-specific binding was determined in the presence of 1,000-fold excess of unlabelled CNTF. Specific binding towards MG87/CNTFR was 80–90%. Data were analyzed using the […] program (ISI, Philadelphia, Pa.).

| IC50 [1] [nM] | IC50 [2] [nM] | fold less potent than unlabelled rat CNTF in displacing 125I-rat CNTF [1] [fold] | fold less potent than rat CNTF [2] [fold] | Binder |
| --- | --- | --- | --- | --- |
| 0.28 | 2.8 | – | – | recombinant rat CNTF (ciliary neurotrophic factor) (ligand, also called unlabelled rat CNTF) AFAEQTPLTLHRRDLCSRSIWLARKIRSDLTALMESYVKHQGLNKNINLDSVDGVPVASTDRWSEMTEAERLQENLQAYRTFQGMLTKLLEDQRVHFTPTEGDFHQAIHTLMLQVDAFAYQLEELMVLLEQKIPENEADGMPATVGDGGLFEKKLWGLKVLQELSQWTVRSIHDLRVISSHQMGISALESHYGAKDKQM |
| 25 | 30 | 90 | 12 | recombinant human CNTF (ciliary neurotrophic factor) (ligand, Position numbers (C17, Q63) count the methionine as 1; also called rHCNTF; hCNTF) AFTEHSPLTPHRRDLCSRSIWLARKIRSDLTALTESYVKHQGLNKNINLDSADGMPVASTDQWSELTEAERLQENLQAYRTFHVLLARLLEDQQVHFTPTEGDFHQAIHTLLLQVAAFAYQIEELMILLEYKIPRNEADGMPINVGDGGLFEKKLWGLKVLQELSQWTVRSIHDLRFISSHQTGIPARGSHYIANNKKM |
